What was measured:
[1] = molecular target: T1, CD18 on HEK293-CD18 cells (UniProt P05107 23-769); experiment: immunofluorescent staining of transfected HEK293 cells
T1 construct: whole, on cells; also called negative control protein CD18

[2] = molecular target: negative unrelated control protein; experiment: ELISA, negative control antigen

T1 sequence (P05107 23-769 limits assumed): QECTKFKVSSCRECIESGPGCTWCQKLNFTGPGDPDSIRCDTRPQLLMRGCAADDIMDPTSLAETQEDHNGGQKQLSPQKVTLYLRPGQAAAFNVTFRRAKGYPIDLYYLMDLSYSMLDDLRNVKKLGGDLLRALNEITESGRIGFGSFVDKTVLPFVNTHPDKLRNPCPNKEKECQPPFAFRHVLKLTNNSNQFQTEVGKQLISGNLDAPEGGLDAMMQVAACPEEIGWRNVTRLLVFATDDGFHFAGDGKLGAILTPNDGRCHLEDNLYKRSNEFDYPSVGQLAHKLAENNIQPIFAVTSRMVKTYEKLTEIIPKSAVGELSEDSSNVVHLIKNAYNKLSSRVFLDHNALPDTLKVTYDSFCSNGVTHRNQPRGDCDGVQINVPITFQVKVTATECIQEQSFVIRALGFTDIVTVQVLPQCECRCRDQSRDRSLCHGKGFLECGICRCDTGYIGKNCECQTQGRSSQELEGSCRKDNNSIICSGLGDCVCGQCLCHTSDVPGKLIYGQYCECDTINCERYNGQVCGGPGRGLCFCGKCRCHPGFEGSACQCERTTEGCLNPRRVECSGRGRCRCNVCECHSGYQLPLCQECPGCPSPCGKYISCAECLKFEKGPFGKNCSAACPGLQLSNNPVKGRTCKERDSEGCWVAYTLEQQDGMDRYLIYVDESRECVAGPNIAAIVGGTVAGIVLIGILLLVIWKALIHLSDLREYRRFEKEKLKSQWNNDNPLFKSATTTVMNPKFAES

B1: mouse monoclonal anti-human CD37 antibody, clone 2B8D12 (antibody, IgG1, V domains shown)
VH: QVKLDETGGGLVQPGRPMKLSCVASGFTFSDYWMNWVRQSPEKGLEWVAQIRDKPYNYETFYSDSVKGRFTISRDDSKSSVYLQMNNLGAEDMGIYYCTGSFAYWGQGTLVTVSA
VL: DIQMTQSPASLSASEGETVTITCRASGNIHNYLAWYQQKQGKSPQLLVYNAKTLPDGVPSRVSGSGSGTQYSLKINNLQPEDFGNYYCQQYWSTPYTFGGGSRLEIKR
notes: Mouse hybridoma antibody; also called antibody CD37; CD37 antibody (2B8D12)
binding result [1]: no binding | OD405 [2]: 0.098 OD405
